In article PMC8065039:

Legend:
[1] = molecular target: C1q (human) (UniProt P02745); assay: ELISA; C1q binding ELISA: plates coated with 5 ug/mL CA521 subtypes or OPDIVO (IgG4), fourfold serial dilutions starting at 40 ug/mL, 2 h at 37 C, C1q detected by HRP anti-human C1q; x axis of the figure: antibody concentration (nM); duplicate
[2] = molecular target: Gama Fc Receptor 1 (CD64) (human) (UniProt P12314); assay: SPR
[3] = molecular target: FcγRIIA R167 (human) (UniProt P12318); assay: SPR
[4] = molecular target: FcγRIIB/C (human) (UniProt P31994); assay: SPR
Chain of FcγRIIB/C (human) (P31994 43-217): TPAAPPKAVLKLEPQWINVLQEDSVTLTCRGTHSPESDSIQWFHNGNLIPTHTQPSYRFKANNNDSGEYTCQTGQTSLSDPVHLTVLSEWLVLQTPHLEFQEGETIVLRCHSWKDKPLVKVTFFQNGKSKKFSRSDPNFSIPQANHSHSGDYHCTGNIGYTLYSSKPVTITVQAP

Chain of FcγRIIA R167 (human) (P12318 34-217 H167R): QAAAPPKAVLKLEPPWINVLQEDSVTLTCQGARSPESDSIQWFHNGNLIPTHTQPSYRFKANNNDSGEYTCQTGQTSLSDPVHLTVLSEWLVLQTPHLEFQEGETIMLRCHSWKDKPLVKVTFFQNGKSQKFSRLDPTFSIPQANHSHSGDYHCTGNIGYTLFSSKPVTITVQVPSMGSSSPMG
Chain of C1q (human) (P02745 23-245, chain 1 of 3): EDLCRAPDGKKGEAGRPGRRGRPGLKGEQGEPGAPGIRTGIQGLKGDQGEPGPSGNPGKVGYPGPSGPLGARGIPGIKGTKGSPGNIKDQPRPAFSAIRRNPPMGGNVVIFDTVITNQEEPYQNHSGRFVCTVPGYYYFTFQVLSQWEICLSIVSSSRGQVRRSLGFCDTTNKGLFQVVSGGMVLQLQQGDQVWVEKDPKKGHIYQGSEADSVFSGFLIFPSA
Chain of C1q (human) (P02746 28-253, chain 2 of 3, further chain): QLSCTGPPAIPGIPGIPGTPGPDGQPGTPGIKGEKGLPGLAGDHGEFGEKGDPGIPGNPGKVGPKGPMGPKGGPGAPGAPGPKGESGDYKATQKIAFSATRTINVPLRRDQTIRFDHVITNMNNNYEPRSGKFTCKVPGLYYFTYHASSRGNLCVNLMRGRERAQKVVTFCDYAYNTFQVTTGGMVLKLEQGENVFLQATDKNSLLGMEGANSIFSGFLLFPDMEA
Chain of C1q (human) (P02747 29-245, chain 3 of 3, further chain): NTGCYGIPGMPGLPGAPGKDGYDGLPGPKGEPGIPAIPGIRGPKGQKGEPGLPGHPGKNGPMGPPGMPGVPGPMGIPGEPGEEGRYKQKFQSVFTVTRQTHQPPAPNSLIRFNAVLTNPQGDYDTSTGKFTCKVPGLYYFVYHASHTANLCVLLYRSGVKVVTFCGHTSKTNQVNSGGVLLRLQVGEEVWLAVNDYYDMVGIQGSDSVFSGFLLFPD
Chain of Gama Fc Receptor 1 (CD64) (human) (P12314 16-374): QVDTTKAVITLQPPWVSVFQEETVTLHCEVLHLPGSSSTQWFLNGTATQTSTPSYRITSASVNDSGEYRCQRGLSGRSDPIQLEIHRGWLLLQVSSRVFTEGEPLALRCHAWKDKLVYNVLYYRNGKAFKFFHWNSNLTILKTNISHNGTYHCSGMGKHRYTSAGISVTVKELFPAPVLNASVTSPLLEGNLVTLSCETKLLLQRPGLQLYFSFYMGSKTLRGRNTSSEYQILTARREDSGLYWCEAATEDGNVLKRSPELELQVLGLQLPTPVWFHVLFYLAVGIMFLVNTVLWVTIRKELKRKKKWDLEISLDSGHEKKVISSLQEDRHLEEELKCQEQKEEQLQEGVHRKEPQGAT

| IC50 [1] [nM] | Substance | Kd [2] [nM] | Kd [3] [nM] | Kd [4] [nM] |
| --- | --- | --- | --- | --- |
| 35.9 | Opdivo (IgG4) (antibody) | – | – | – |
| – | CA521(IgG1) (from UniProt P01857) | 3.12 | 5110 | 20400 |
